# B1: CIS43 human monoclonal antibody (antibody, V domains shown)
# VH: QVQLVQSGAEVKKPGASVKVSCKASGYTFTSYAIHWVRQAPGQRLEWMGWIKAGNGNTRYSQKFQDRVTITRDTSTTTAYMELSSLRSEDTAVYYCALLTVLTPDDAFDIWGQGTMVTVSS
# VL: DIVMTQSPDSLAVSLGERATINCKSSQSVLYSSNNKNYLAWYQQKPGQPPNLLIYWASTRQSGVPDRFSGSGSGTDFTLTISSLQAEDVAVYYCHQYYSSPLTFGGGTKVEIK
# notes: also called CIS43 IgG
# Molecular target: T1, full-length PfCSP on the surface of transgenic P. berghei sporozoites (Pb-PfCSP) (Plasmodium falciparum, UniProt Q7K740 19-374)
# T1 construct: whole, on cells; also called Pb-PfCSP SPZ; Pb-PfCSP SPZ GFP/Luc
# Experiment: flow cytometry on Pb-PfCSP sporozoites, mAb 20 µg/mL, MFI
# T1 sequence (Q7K740 19-374): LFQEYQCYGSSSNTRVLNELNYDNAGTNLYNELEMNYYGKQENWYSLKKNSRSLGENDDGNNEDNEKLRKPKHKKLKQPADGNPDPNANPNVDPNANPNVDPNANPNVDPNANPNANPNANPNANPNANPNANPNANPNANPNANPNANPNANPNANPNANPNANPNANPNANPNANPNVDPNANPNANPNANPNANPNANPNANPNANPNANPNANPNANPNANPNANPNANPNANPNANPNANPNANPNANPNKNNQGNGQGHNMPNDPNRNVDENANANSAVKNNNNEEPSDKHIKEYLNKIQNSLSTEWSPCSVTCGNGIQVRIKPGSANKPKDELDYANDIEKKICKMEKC
binder,measurement,value
B1,binding result,binds
